# Columns and labels:
# Experiment in all cases: capture ELISA
# BaL-gp120 = target: T1, BaL-gp120 (HIV-1 BaL)
# T1 construct: domain: gp120; also called monomeric gp120; monomeric BaL gp120
# FLSC = target: T2, FLSC (HIV-1, UniProt P01730 26-208)
# T2 construct: not shown: linker of FLSC not described
# BaL-gp120-E32A = target: T3, BaL-gp120-E32A (HIV-1 BaL)
# T3 construct: domain: gp120
# BaL-gp120-Y39A = target: T4, BaL-gp120-Y39A (HIV-1 BaL)
# T4 construct: domain: gp120
# BaL-gp120-Y40A = target: T5, BaL-gp120-Y40A (HIV-1 BaL)
# T5 construct: domain: gp120
# BaL-gp120-V44A = target: T6, BaL-gp120-V44A (HIV-1 BaL)
# T6 construct: domain: gp120
# BaL-gp120-E47A = target: T7, BaL-gp120-E47A (HIV-1 BaL)
# T7 construct: domain: gp120
# BaL-gp120-F53A = target: T8, BaL-gp120-F53A (HIV-1 BaL)
# T8 construct: domain: gp120
# BaL-gp120-D57AD62A = target: T9, BaL-gp120-D57AD62A (HIV-1 BaL)
# T9 construct: domain: gp120
# BaL-gp120-Y61A = target: T10, BaL-gp120-Y61A (HIV-1 BaL)
# T10 construct: domain: gp120
# BaL-gp120-W69A = target: T11, BaL-gp120-W69A (HIV-1 BaL)
# T11 construct: domain: gp120
# BaL-gp120-H105A = target: T12, BaL-gp120-H105A (HIV-1 BaL)
# T12 construct: domain: gp120
# BaL-gp120-D368R = target: T13, BaL-gp120-D368R (HIV-1 BaL)
# T13 construct: domain: gp120
# BaL-gp120-I420R = target: T14, BaL-gp120-I420R (HIV-1 BaL)
# T14 construct: domain: gp120; also called -1420R
# BaL-gp120-T455A = target: T15, BaL-gp120-T455A (HIV-1 BaL)
# T15 construct: domain: gp120
# BaL-gp120-R476A = target: T16, BaL-gp120-R476A (HIV-1 BaL)
# T16 construct: domain: gp120
# BaL-gp120-K487AK490A = target: T17, BaL-gp120-K487AK490A (HIV-1 BaL)
# T17 construct: domain: gp120
# BaL-gp120-I491A = target: T18, BaL-gp120-I491A (HIV-1 BaL)
# T18 construct: domain: gp120
# BaL-gp120-P493A = target: T19, BaL-gp120-P493A (HIV-1 BaL)
# T19 construct: domain: gp120
# BaL-gp120-P498A = target: T20, BaL-gp120-P498A (HIV-1 BaL)
# T20 construct: domain: gp120
# BaL-gp120-T499A = target: T21, BaL-gp120-T499A (HIV-1 BaL)
# T21 construct: domain: gp120
# BaL-gp120-T162A = target: T22, BaL-gp120-T162A (HIV-1 BaL)
# T22 construct: domain: gp120; glycan mutant
# BaL-gp120-S334A = target: T23, BaL-gp120-S334A (HIV-1 BaL)
# T23 construct: domain: gp120; glycan mutant
binder,measurement,setting,value
"N60-B1.1 (antibody, V domains shown, also called bnAb N60-B1.1) VH: QLQLQESGPGLVKPSGTLSLTCSVSGGSMNGRNIYWAWIRQTPGKGLEWIGSVDVSDEDAGRTFYKWPIKSRASISADTSKNQFSLKLSSVTVADTGVYYCARETLYYVGNGYYYPLDVFYYNYYMDVWGKGTTVSVSS VL: not shown",% Binding,BaL-gp120,100%
same,% Binding,FLSC,10%
same,% Binding,BaL-gp120-E32A,108%
same,% Binding,BaL-gp120-Y39A,121%
same,% Binding,BaL-gp120-Y40A,139%
same,% Binding,BaL-gp120-V44A,114%
same,% Binding,BaL-gp120-E47A,78%
same,% Binding,BaL-gp120-F53A,90%
same,% Binding,BaL-gp120-D57AD62A,76%
same,% Binding,BaL-gp120-Y61A,92%
same,% Binding,BaL-gp120-W69A,84%
same,% Binding,BaL-gp120-H105A,88%
same,% Binding,BaL-gp120-D368R,99%
same,% Binding,BaL-gp120-I420R,22%
same,% Binding,BaL-gp120-T455A,73%
same,% Binding,BaL-gp120-R476A,57%
same,% Binding,BaL-gp120-K487AK490A,31%
same,% Binding,BaL-gp120-I491A,85%
same,% Binding,BaL-gp120-P493A,92%
same,% Binding,BaL-gp120-P498A,101%
same,% Binding,BaL-gp120-T499A,102%
same,% Binding,BaL-gp120-T162A,100%
same,% Binding,BaL-gp120-S334A,91%
